Measurements taken from US20200087373A1 (UNIVERSITY OF COPENHAGEN, published 2020).
Ends that are not written are not given here. * marks the point of attachment. Stearoyl = CCCCCCCCCCCCCCCCCC(=O)*; Myristoyl = CCCCCCCCCCCCCC(=O)*

B1: AT160 [hGIP(3-30)NH2[H18K]-C18/18] (peptide)
peptide: EGTFISDYSIAMDKIK(Stearoyl)QQDFVNWLLAQK-NH2
modifications: N-terminus assumed
SMILES: CCCCCCCCCCCCCCCCCC(=O)NCCCC[C@H](NC(=O)[C@@H](NC(=O)[C@H](CCCCN)NC(=O)[C@H](CC(=O)O)NC(=O)[C@H](CCSC)NC(=O)[C@H](C)NC(=O)[C@@H](NC(=O)[C@H](CO)NC(=O)[C@H](Cc1ccc(O)cc1)NC(=O)[C@H](CC(=O)O)NC(=O)[C@H](CO)NC(=O)[C@@H](NC(=O)[C@H](Cc1ccccc1)NC(=O)[C@@H](NC(=O)CNC(=O)[C@@H](N)CCC(=O)O)[C@@H](C)O)[C@@H](C)CC)[C@@H](C)CC)[C@@H](C)CC)C(=O)N[C@@H](CCC(N)=O)C(=O)N[C@@H](CCC(N)=O)C(=O)N[C@@H](CC(=O)O)C(=O)N[C@@H](Cc1ccccc1)C(=O)N[C@H](C(=O)N[C@@H](CC(N)=O)C(=O)N[C@@H](Cc1c[nH]c2ccccc12)C(=O)N[C@@H](CC(C)C)C(=O)N[C@@H](CC(C)C)C(=O)N[C@@H](C)C(=O)N[C@@H](CCC(N)=O)C(=O)N[C@@H](CCCCN)C(N)=O)C(C)C

Experiments:
[1] = biological target: human GIP receptor (human) (UniProt P48546); experiment: 125I-hGIP(1-42) competition binding, COS-7 cells expressing human GIPR
[2] = biological target: human GIP receptor (human) (UniProt P48546); experiment: ratio of IC50 with 2% HSA to IC50 with 0.1% casein, 125I-hGIP competition binding on hGIPR COS-7 cells
[3] = biological target: human GIP receptor (human) (UniProt P48546); experiment: 125I-hGIP(1-42) competition binding, COS-7 cells expressing human GIPR, 0.1% casein (no HSA)
[4] = biological target: human GIP receptor (human) (UniProt P48546); experiment: 125I-hGIP(1-42) competition binding, COS-7 cells expressing human GIPR, 2% HSA
[5] = biological target: human GIP receptor (human) (UniProt P48546); experiment: 125I-hGIP competition binding on hGIPR COS-7 cells; fold in affinity, paired, reference taken as GIP(3-30)NH2
[6] = biological target: human GIP receptor (human) (UniProt P48546); experiment: cell-based or functional assay
[7] = biological target: human GIP receptor (human) (UniProt P48546); experiment: 125I-hGIP competition binding, COS-7 cells expressing hGIPR
human GIP receptor [8] = biological target: T1, human GIP receptor (human, UniProt P48546 22-466); experiment: 125I-hGIP competition binding on hGIPR COS-7 cells; fold in affinity, paired, reference taken as GIP(3-30)NH2
T1 construct: whole, on cells; Transiently transfected COS-7 cells expressing the human GIP receptor; also called hGIPR
T1 sequence (looked up): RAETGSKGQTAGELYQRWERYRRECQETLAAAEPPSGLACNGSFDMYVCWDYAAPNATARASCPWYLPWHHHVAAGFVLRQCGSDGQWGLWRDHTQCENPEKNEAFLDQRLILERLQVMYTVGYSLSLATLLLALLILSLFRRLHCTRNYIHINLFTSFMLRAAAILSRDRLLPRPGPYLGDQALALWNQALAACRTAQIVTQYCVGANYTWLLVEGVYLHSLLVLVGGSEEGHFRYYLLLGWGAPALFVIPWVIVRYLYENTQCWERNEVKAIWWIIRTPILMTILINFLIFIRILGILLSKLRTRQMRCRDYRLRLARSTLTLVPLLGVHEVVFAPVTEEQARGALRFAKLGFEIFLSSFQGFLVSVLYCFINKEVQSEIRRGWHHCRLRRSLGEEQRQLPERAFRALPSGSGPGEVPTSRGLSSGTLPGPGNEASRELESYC
Protocol: (§1) After incubation, the cells were washed twice in ice-cold binding buffer (+/−2% HSA) and lysed using 200 mM NaOH with 1% SDS for 30 min. Nonspecific binding was determined as the binding of radioactive ligand to untransfected cells.

human GIP receptor [9] = biological target: T1, human GIP receptor; experiment: 125I-hGIP(1-42) competition binding, COS-7 cells expressing human GIPR, 2% HSA
Protocol: as §1

human GIP receptor [10] = biological target: T1, human GIP receptor; experiment: cell-based or functional assay
human GIP receptor [11] = biological target: T1, human GIP receptor; experiment: 125I-hGIP(1-42) competition binding, COS-7 cells expressing human GIPR
Protocol: as §1

human GIP receptor [12] = biological target: T1, human GIP receptor; experiment: 125I-hGIP(1-42) competition binding, COS-7 cells expressing human GIPR, 0.1% casein (no HSA)
Protocol: as §1

human GIP receptor [13] = biological target: T1, human GIP receptor; experiment: ratio of IC50 with 2% HSA to IC50 with 0.1% casein, 125I-hGIP competition binding on hGIPR COS-7 cells
Protocol: as §1

human GIP receptor [14] = biological target: T2, human GIP receptor (human, UniProt P48546 22-466); experiment: cell-based or functional assay; remark: listed apart in the source
T2 sequence (looked up): T1 sequence (looked up)

Molecule	IC50 [1]	Fold change (IC50 2% HSA / IC50 0.1% casein) [2]	IC50 [3]	IC50 [4]	fold (paired) [5]	cAMP - antagonisme IC50 [6]	cAMP - antagonisme fold (paired) [6]	also measured
AT162, second row of Table 3b (H18K; K30R, C16 at position 16) (peptide)	0.213 µM	3.3 fold	0.213 µM	0.705 µM	9.2 fold	0.213 µM	4.1 fold	–
AT129 [hGIP(5-30)NH2-C18/30] (peptide)	–	–	–	–	–	–	–	log IC50 [7]: -3.9 log M
AT162 (H18K; K30R, C18 at position 16, as printed in Table 3b) (peptide)	0.0598 µM	5.6 fold	0.0598 µM	0.337 µM	2.6 fold	0.0263 µM	0.5 fold	–
AT114 [hGIP(3-30)NH2-C18/16] (peptide)	0.102 µM	7.7 fold	0.115 µM	0.881 µM	6.7 fold	0.0292 µM	2.3 fold	–
EGTFISDYSIAMDK(Myristoyl)IHQQDFVNWLLAQK-NH2 [AT111 [hGIP(3-30)NH2-C14/16]]	–	–	–	–	–	–	–	fold (paired) (human GIP receptor [8]): 31 fold; IC50 (human GIP receptor [9]): 2.09 µM; cAMP - antagonisme IC50 (human GIP receptor [10]): 0.0219 µM; cAMP - antagonisme fold (paired) (human GIP receptor [10]): 3.3 fold; IC50 (human GIP receptor [11]): 0.261 µM; IC50 (human GIP receptor [12]): 0.407 µM; Fold change (IC50 2% HSA / IC50 0.1% casein) (human GIP receptor [13]): 5.1 fold
EGTFISDYSIAMDK(Stearoyl)IRQQDFVNWLLAQR-NH2 (not fully specified) [AT162 [hGIP(3-30)NH2[H18R; K30R]-C18/16]]	–	–	–	–	–	–	–	cAMP agonism, EC50 (log) (human GIP receptor [14]): -5.9 log M; cAMP agonism, Emax (human GIP receptor [14]): 44%; cAMP agonism, nM (EC50) (human GIP receptor [14]): 1370 nM; IC50 [7]: 0.085 µM
B1	–	–	–	–	–	–	–	fold (paired) (human GIP receptor [8]): 6 fold; IC50 (human GIP receptor [9]): 0.175 µM; cAMP - antagonisme IC50 (human GIP receptor [10]): 0.0361 µM; cAMP - antagonisme fold (paired) (human GIP receptor [10]): 0.7 fold; IC50 (human GIP receptor [11]): 0.0488 µM; IC50 (human GIP receptor [12]): 0.0488 µM; Fold change (IC50 2% HSA / IC50 0.1% casein) (human GIP receptor [13]): 3.6 fold
